# Source: the supplement of paper PMC9170038
# Tested on: MS2 coat protein
# Assay: apparent KD of MS2 coat protein; designed switch direction (-1 OFF switch, 1 ON switch): 1; higher = weaker reporter binding
# How it was run: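 On Illumina chips, designed RNA switches with common flanks were made by stalled E. coli RNA polymerase. Titrations with SNAP-549-labelled MS2 coat protein, doubling from 0.7 or 1.5 nM to 3 µM, were done with no input, with 200 uM small-molecule ligand, or with an oligonucleotide input. Apparent KD is the median per design over clusters, from curve fits of normalised cluster fluorescence.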
# [1] = input ligand: microRNA oligo, concentration not stated
# [2] = Eterna round: R95, input ligand: microRNA oligo, concentration not stated
# [3] = Eterna round: R95, input ligand: FMN 200 uM
# [4] = Eterna round: R95, input ligand: none
Sequence,apparent KD of MS2 coat protein (input ligand: FMN 200 uM),apparent KD of MS2 coat protein [1],apparent KD of MS2 coat protein (input ligand: none),apparent KD of MS2 coat protein [2],apparent KD of MS2 coat protein [3],apparent KD of MS2 coat protein [4]
"CCGGGUAAUGGAGGAUAUGGAGCCUUAUUGGCUCCAGAAGGCUAACAUGAGGAUCACCCAUGUAGUCCGGCGGUCAAUAGACCG [Eli NG1ss - 66] (Eterna round: R96, puzzle: Same State NG 1)",10.5 nM,13.2 nM,19.2 nM,–,–,–
"AAGAAACAUGAGGAUCACCCAUGUCGAGAGAGACGAGGAUAUCUGAAUCGAUUAGAUUACGGAGAAGGCGUGAAAA [Same State 1.2 (Same State of Confusion2 - minimal change )] (Eterna round: R96, puzzle: Same State 1)",22.1 nM,22 nM,27 nM,–,–,–
GUUAAACAUGAGGAUCACCCAUGUCAAUGUAGUCGAGGAUAUGGGCAGCUGUGAGGCGUACUAGAAGGCGAAAAGG [Mat - Same State 1 - Mod of JL - D10] (puzzle: Same State 1),–,–,–,266 nM,–,–
"GUGCUCGUGUAAGGAUAUGCAGCCGUUUCGGCUGCAGAAGGUACUAUAAUACAUGAGGAUCACCCAUGUCUCUAUAAUUUGGUG [salish99_SSNG1_r04_904] (Eterna round: R96, puzzle: Same State NG 1)",–,107 nM,–,–,–,–
UUUUAUUUUUGGGUGCAAGCUUUUUGCUUACAUGAGGAUCACCCAUGUUUUUAUUUUUUAUUUUUAUUUUUAUUUUU (puzzle: Sensor for hsa-mir-208a),–,–,–,60.3 nM,51.8 nM,86.7 nM
"GAGUAGUUGGGAGGAUAUCGAUUGUUAUAGAAUCGAGAAGGUCCUAACAUGAGGAUCACCCAUGUAGGACUAUUCCUGUGUAUC [Parity 75 - Jieux - Same State NG 1] (Eterna round: R96, puzzle: Same State NG 1)",9.81 nM,7.5 nM,10.6 nM,–,–,–
"GCCGCGUUUCGCGCCUACAUGAGGAUCACCCAUGUUUGUAGGCAGGAUAUCGCUCGCUUUGCGGGCGAGAAGGGCUGUUGUGGC [salish99_SSNG3_R04_019] (Eterna round: R96, puzzle: Same State NG 3)",45.8 nM,41.8 nM,54.4 nM,–,–,–
"GUUACAUGAGGAUCACCCAUGUAUGUGUGGGAGUAAGUGUCUUAGGAUAUCUGUUAUUGAAUUUAAGAGAAGGAAGAUUGUUGU [JMF's solution 37] (Eterna round: R96, puzzle: Same State NG 3)",102 nM,59.5 nM,100 nM,–,–,–
GGGCCAGCCUGUGCUGGGCCUUAGCAUGCACAUGAGGAUCACCCAUGUCGUGUACAUGCUUUUUGCUCGUCUUUAAA [Photon Torp-09] (puzzle: Sensor for hsa-mir-208a),–,–,–,15.6 nM,79.2 nM,93.2 nM
AGGUGAUAUGGAAAGGAUAUACGGUUUAGGACAUGAGGAUCACCCAUGUGGAAGAUGGCGAGAGAGUAGAAGGUUCGAAAUUGGU [JR_SS@_Sub024] (puzzle: Same State 2),–,–,–,75 nM,43.4 nM,77.4 nM
UUUAAACAUGAGGAUCACCCAUGUUUUUUUAUGGGAGGAUAUCUAAGUUAAUUAUAUUAAGGAGAAGGCCUAUUUU [× ×•×ª×• ×ž×“×™× ×” × ×—×ª-04] (puzzle: Same State 1),–,–,–,124 nM,–,–
"GCUCGACGUAUGGCCUACAUGAGGAUCACCCAUGUGAUUGGGCAGGAUAUCUAGAUGCAGGAUGUAGAGAAGGGCCCGUCGAGC [SameState NG3 #47] (Eterna round: R96, puzzle: Same State NG 3)",393 nM,92 nM,230 nM,–,–,–
"AAACAUGAGGAUCACCCAUGUCGAUUAAAACCCUAAUCUACUCAGGAUAUCCGAAUGCGCGUUUCGGAGAAGGGAGAAAUGUGA [Isessoreri] (Eterna round: R96, puzzle: Same State NG 3)",27 nM,37.5 nM,31.7 nM,–,–,–
"AGCCGAAGCACAGGAUAUACAUGUAUACAUGAGGAUCACCCAUGUAGCAACACGUGGUAGUGAUUGUAGAAGGGUGCUCGGCGC [Omei SS(NG)2 Cv14] (Eterna round: R96, puzzle: Same State NG 2)",21.3 nM,16 nM,25.3 nM,–,–,–
"AUAAAACAUGAGGAUCACCCAUGUCAACAAAGUCGAGGAUAUGGGCAAAUAAAAUAAGAACCAGAAGGCGAAUAAC [salish99_SS1_r3_003] (Eterna round: R96, puzzle: Same State 1)",39.7 nM,215 nM,282 nM,–,–,–
AUUAAACAUGAGGAUCACCCAUGUCAACAAAGUCGAGGAUAUGGGCAAAUAAAUUAAGAACCAGAAGGCGAAUAAU [salish99_ss1_r3_057] (puzzle: Same State 1),–,–,–,266 nM,–,–

Sequence,apparent KD of MS2 coat protein (input ligand: FMN 200 uM),apparent KD of MS2 coat protein [1],apparent KD of MS2 coat protein (input ligand: none),apparent KD of MS2 coat protein [2],apparent KD of MS2 coat protein [3],apparent KD of MS2 coat protein [4]
"GGAACACAUGAGGAUCACCCAUGUCAAGGAGGUCGAGGAUAUAGGAAAAAAAAAAAAAAAUUAGAAGGUGAGGAGG [V1] (Eterna round: R96, puzzle: Same State 1)",270 nM,166 nM,275 nM,–,–,–
"CUGAGCGAUCGAGGAUAUCACGUCGUUUAGACGUGAGAAGGCGAUCAUAACAUGAGGAUCACCCAUGUAUUACAUGAAGCUCAG [SSNG1/4-A3] (Eterna round: R96, puzzle: Same State NG 1)",16.8 nM,14.9 nM,19.2 nM,–,–,–
AUUAAACAUGAGGAUCACCCAUGUCAACAAAGUCGAGGAUAUGGGCAAUUAAAAUAAGAACCAGAAGGCGAAUAAU [salish99_ss1_r3_061] (puzzle: Same State 1),–,–,–,224 nM,–,–
"AGGCUCAGAGCAGGAUAUAUGUGAUCACAUGAGGAUCACCCAUGUCUCGAGCUUCGGCUCGAGACAUAGAAGGGCUCUGAGCCA [SSNG2/3-B1] (Eterna round: R96, puzzle: Same State NG 2)",2490 nM,39.3 nM,28.3 nM,–,–,–
AGCUAUCGCGUACGAUAGCUGAAGCGUGUACAUGAGGAUCACCCAUGUCAUGUACAAGCUUUUUGCUCGUCUUAUUG [JL-shm-2.28 JL mod] (puzzle: Sensor for hsa-mir-208a),–,–,–,18.2 nM,249 nM,296 nM
"UGAAUGGUGAUAGGAUAUACAUGAGGAAUCCUCGUAGAAGGAUCACGACAUGAGGAUCACCCAUGUAGCCGUCCGUAGACGGCG [salish99_SSNG1_r04_001] (Eterna round: R96, puzzle: Same State NG 1)",302 nM,38.9 nM,238 nM,–,–,–
UGUAAACAUGAGGAUCACCCAUGUUUUUUCAUGGGAGGAUAUCUGAGUUAAGUAUAUUAAGGAGAAGGCCUUGUGU [× ×•×ª×• ×ž×“×™× ×” × ×—×ª-03] (puzzle: Same State 1),–,–,–,18.7 nM,90.2 nM,24.7 nM
"UUGAAGAAUUAAGGAUAUCGAGUCGUCUAAUUAAACAUGAGGAUCACCCAUGUGGGUUGCGGUAUCGAGAAGGUAAAUUACUAA [JL JR Sub099 mod 1] (Eterna round: R96, puzzle: Same State NG 2)",14.3 nM,20.6 nM,32.2 nM,–,–,–
AAUUCACGAGCACAGGAUAUGCUUGCCAACACAUGAGGAUCACCCAUGUCGGGCUACGAAUAAGAGCAGAAGGGUGACUCAUGAU [Atesusgela] (puzzle: Same State 2),–,–,–,19.2 nM,16.8 nM,13.9 nM
AUAAAACAUGAGGAUCACCCAUGUCAACAAAGAUGAGGAUAUGUACAGACUUCGGUCUGUACAGAAGGCAUAUAAU [salish99_ss1_r3_099] (puzzle: Same State 1),–,–,–,15.2 nM,15.4 nM,13.9 nM
UCUUGGUUUUUGCUCGUUUUUUGUGUUGAACAUGAGGAUCACCCAUGUAUUGUACGGUCCAGUUUGGUAAUGGUCCA [JMF 8] (puzzle: Sensor for hsa-mir-208a),–,–,–,20.5 nM,31.2 nM,35 nM
"CACAUGAGGAUCACCCAUGUGAGGCGGCAAUAAAACCGCGCACAGGAUAUAGCGCUAAGAAAGCGCUAGAAGGGUGAUUAGAAC [Gerelabies] (Eterna round: R96, puzzle: Same State NG 3)",712 nM,20.8 nM,71.1 nM,–,–,–
"GGUGGGUUACUACCAACACAUGAGGAUCACCCAUGUUUUGGGAAGGAUAUGGUACCUAUUUGGUACCAGAAGGUCCAGUUAAUG [salish99_SSNG3_r04_702] (Eterna round: R96, puzzle: Same State NG 3)",51.4 nM,29.5 nM,41.7 nM,–,–,–
"AAAAAACAUGAGGAUCACCCAUGUCGAAAGACAUGAGGAUAUGUGUGGAAACCAUACUAUACAGAAGGCAUAAAAA [SS1 - 1009] (Eterna round: R96, puzzle: Same State 1)",60.6 nM,137 nM,96.8 nM,–,–,–
"GCAACUCGUAGAGGAUAUGUCCAGCAAGUAUCACAUGAGGAUCACCCAUGUUCAGCUCUACACCUGCAGAAGGCUAUUAGUGCA [Eternabot solution 46] (Eterna round: R96, puzzle: Same State NG 2)",15.8 nM,13.6 nM,17.2 nM,–,–,–
"GCGAGCGUACUUGCUACAUGAGGAUCACCCAUGUUAACUGGACAGGAUAUGGUACCGUUUCGGUACCAGAAGGGUUCAUCAUGU [JL SSNG3 3.68] (Eterna round: R96, puzzle: Same State NG 3)",306 nM,245 nM,665 nM,–,–,–
